Results as given in the DeepSol protein solubility set.

Test: soluble on expression in E. coli; label from the status in PepcDB or PDB records

Sequence | soluble on expression in E. coli
MEKELDLSQYSVRTDLAVEAKDIALENQPKPNNQSEIKGVIVKEKEEQGVKISMVEITEEGAEAIGKKKGRYVTLESVGIREQDTEKQEEAMEEVFAKELNFFIKSLNIPDDASCLVVGLGNLSVTPDALGPKAVDNLLITRHLFELQPESVQDGFRPVSAIVPGVMGMTGIETSDIIFGVVKKVNPDFIIAIDALAARSIERVNATIQISDSGIHPGSGVGNKRKEISYETLGIPVIAIGIPTVVDAVSITSDTIDFILKHFGREMKEQGKPSKSLLPSGMTFGEKKKLTEDDLPNEEQRQTYLGMIGTLPDEEKRRLIHEVLAPLGHNLMVTPKEVDMFIEDMANVVAGGLNAALHHEVDQENFGAYTH | soluble
MKLDAKSTIETGKAILGIELGSTRIKAVLIDQENKPIAQGSHTWENQLVNGLWTYSIDAIWSGLQDCYADLRSNVKKLYDTEIETLAAIGVSAMMHGYMPFNEKEEILVPFRTWRNTNTGRAAAELSELFVYNIPLRWSISHLYQAILDNEAHVKDIKFLTTLAGYVHWQITGEKVLGIGDASGMLPIDPTTNNYSAEMVAKFNNLIASKEYSWKLEDILPKVLSAGENAGVLTPEGCKKLDASGHLKAGIPVCPPEGDAGTGMVATNAVKQRTGNVSAGTSSFSMIVLEKELSKPYEMIDMVTTPDGSLVAMVHCNNCTSDLNAWVNLFKEYQELLGIPVDMDELYGKLYNIALTGDTDCGGLLSYNYISGEPVTGLAEGRPLFVRSANDKFNLANFMRAHLYASVGVLKIGNDILFNEEKIKVDRITGHGGLFRTKGVGQRVLAAAINSPISVMETAGEGGAWGIALLGSYLVNNKKGQSLADFLDESVFVSDAGVEVSPTPEDVAGFNTYIESYKAGLPIEEAAVKFKLEHHHHHH | soluble
MDAIKKKMQAMKIEKDNALDRADAAEEKVRQITEKLERVEEELRDTQKKMTQTGDDLDKAQEDLSAATSKLEEKEKTVQEAEAEVASLNRRMTLLEEELERAEERLKIATEKLEEATHNVDESERVRKVMENRSLQDEERANTVEAQLKEAQLLAEEADRKYDEVARKLAMVEADLERAEERAEAGENKIVELEEELRVVGNNLKSLEVSEEKALQREDSYEEQIRTVSSRLKEAETRAEFAERSVQKLQKEVDRLEDELVHEKERYKTISEELDSTFQELSGY | not soluble
RILDIDPVAQTAVVEPGVVCDALRDAAAEFGLTYGPDPSTHSRCTIGGMVANNACGSHSVAFGTAAENLVDVTLMLSDGREVTVTKDGCDDAEINQKLTDLASKNQDLISKELGRFPRQVSGYGLHYLAHDMAKAMAGTEGTIGIITRLTVKLVPTP | not soluble
MGKALPFYLSPYPVDFWTNASFSDEEHEDAALSNSHLGRNAMVPPQGRSGPASWILRSVRDPGFAPCPPWSWIYHQFRIAWLRCVVRMDGRAPQVQTGQSTSPAKAASNATALQDQA | not soluble
MGTRDDEYDYLFKVVLIGDSGVGKSNLLSRFTRNEFNLESKSTIGVEFATRSIQVDGKTIKAQIWDTAGQERYRAITSAYYRGAVGALLVYDIAKHLTYENVERWLKELRDHADSNIVIMLVGNKSDLRHLRAVPTDEARAFAEKNGLSFIETSALDSTNVEAAFQTILTEIYRIVSQKQMSDRRENDMSPSNNVVPIHVPPTTENKPKVQCCQNI | soluble
MAYRDQPLGELALSIPRASALFRQYDMDYCCGGKQTLARAAARHDVDIDIIEAQLAQLAEQPIEKDWRAVPLADIIDHIVVRYHDRHREQLPELILQATKVERVHADKPNVPRGLTKYLTALHEELSSHMMKEEQILFPMIKQGMGRQATGPISVMESEHDEAGELVDVIKHVTKNVTPPPEACTTWKAMYNGINEMIDDLMEHISLENNVLFPRALAGE | not soluble
MTENVVCTGAVNAVKEVWEKRIKKLNEDLKREKEFQHKLVRIWEERVSLTKLREKVTREDGRVILKIEKEEWKTLPSSLLKLNQLQEWQLHRTGLLKIPEFIGRFQNLIVLDLSRNTISEIPPGIGLLTRLQELILSYNKIKTVPKELSNCASLEKLELAVNRDICDLPQELSNLLKLTHLDLSMNDFTTIPLAVLNMPALEWLDMGSNKLEQLPDTIERMQNLHTLWLQRNEITCLPQTISNMKNLGTLVLSNNKLQDIPVCMEEMANLRFVNFRDNPLKLKVSLPPSEGTDEEEERELFGLQFMHTYIQESRRRADHQVNGSTTLPISINTDG | soluble
MSNFSEGEIFIANIEKKSLECRENDEIVVLKICELCNIIYPIFNKIFGNGFVGDTLKKDLKNSSSQVQRAIEKFPEETKYVSMLYSYNINKYENMEKLKRDLDNGIISFLWMKRTLEFIITFLEKCYITCSETKLSICAQEAYNEVLKKYHGFITSKIVKLCLKLSPTKDILTKKLGFQTHQQASTVLQKCLSITKPLVRDISVTIEKFNCDFEEKI | not soluble
MSLKKKIAVVTGATGGMGIEIVKDLSRDHIVYALGRNPEHLAALAEIEGVEPIESDIVKEVLEEGGVDKLKNLDHVDTLVHAAAVARDTTIEAGSVAEWHAHLDLNVIVPAELSRQLLPALRAASGCVIYINSGAGNGPHPGNTIYAASKHALRGLADAFRKEEANNGIRVSTVSPGPTNTPMLQGLMDSQGTNFRPEIYIEPKEIANAIRFVIDAGETTQITNVDVRPRIELADRKEGHHHHHH | soluble
MSLDRTLRGRVEGKVVLITGATSGIGKATARKLAEAGAKVLTIARDEHKIAETQAEFAELGLTLQVYQGDLADLSQGEAITRQIVAEHGGVDILINNAGRSIRRAIEDSFDRFHDLERTMQLNYFGTLKVIMGLLPTMIEKKKGHIINISSIGVLTNAPRFSAYVASKSALDAWVRTAASEFADKGVNFSIINMPLVKTPMVAPTKVYEQVPMMTPEEAADLVCDTIINKHVRLATRLGVFGQVIHALAPRVAQVIMNTSEGHHHHHH | not soluble
QGHMRATNVTYQAHHVSRNKRGQVVGTRGGFRGCTIWLTGLSGAGKTTVSMALEEYLVCHGIPCYTLDGDNIRQGLNKNLGFSPEDREENVRRIAEVAKLFADAGLVCITSFISPYTQDRNNARQIHEGASLPFFEVFVDAPLHVCEQRDVKGLYKKARAGEIKGFTGIDSEYEKPEAPELVLKTDSCDVNDCVQQVVELLNERDILP | soluble
MMVMTDKFNYEELGLKVGLEIHRQLDTKKLFSPVPSELSDKVEFTFQRRLRPTMSELGEIDPAALEEFKKGRVYVYEGNYELTDLVYMDEEPPRGPDREALEVALQIAYLLNAKPVDEVYYMRKIVIDGSNVSGFQRTAIIATDGKVETPWGAVGIPTICLEEDAARIIERKDKEVIYRLDRLGIPLIEISTTPDIHHPEQAKVVAKFIGDALRATKKVKRGLGTIRQDLNVSIKGGARIEIKGVQELDMIPIIIEREVERQLNLLKIRDELRKRGVKPKDIKEEFYDVTDIFENTKSKIIARVIKKGGKVLAIKLPKFRGLIGREIQPGRRLGTEFADRAKKYVPGIFHIDELPNYGISQEEVNKVIERLNLSEEDAFVLVAAEEEKAKNALREVIKRAREAIEGVPEETRRALPDGNTEYMRPLPGKARMYPETDIPPLRIPDDLKKKIKENLPELPQAKVERYVKEYKLDRSLAQTLVDDERDELFEELVSMGVKPSLAASILVVVLKGLRKEVPIENVTDEHIREAFQLYLEGKIAKEAFEEIFKELARNPSKSAREVAEEKGLTLLSEEEVTRIIEEVIQQNIEVVKAKGMGAMGLIMGRVMAKVRGKADGKLVSQIVRRKLQEISGG | soluble
EVEGDKTVPNNVANAPFAGTEPLAKKLGLTEVNSLNTAVAATSSFVQFNAIASHSTFASPSGTLADVNHHAEMQKENADFLMDNALSDVSDTTVLK | not soluble
SQNRVPSSRTVSYFVAKPSSSEMEKLQLGPEDSILRMERIRFADDIPICFEVASIPYSLVSQYGKSEITNSFYKTLEAKSGHKIGHSNQTISAVQASEQIAEYLEIKRGDAILRVRQVSYFENGLPFEYVRTQYAGSRFEFYLEK | soluble
MGSDKIHHHHHHMITPQDRLIKALNGQVIDRSPCICPGGMMNMATTEIMQRVGSHWPEAHKKPQDMARLALGVCHLTGMENLGVPFCMTVEAEAMGAKVNLGSLANEPRVAEYPLMKLEDWETLSGINPGEGRAGIVAEAVSYLTSSKTELPVIANLTGPISLASSLIEPMVFFKAMGKKPELVHEFLYFVTDNLIVFGRSMLQAGAQIINIADPGGTEEILGPRHFAEFALPYINRILNELQGEYQASMVHICGRLQSIFTEINQLATNAISIDSTTSISKLRSALREKVVVGNISTYLLQNAQPGRVKATGFNCLRKGITILSPACGISPATPLANLQAMVSAVHDFDYQNREVSSLG | not soluble
MAPPNGTTNGETEVATQGSYTAVSTGRKTTMHRLIEEHGSVLMPGVQDALSAAVVEKTGFHAAFVSGYSVSAAMLGLPDFGLLTTTEVVEATRRITAAAPNLCVVVDGDTGGGGPLNVQRFIRELISAGAKGVFLEDQVWPKKCGHMRGKAVVPAEEHALKIAAAREAIGDSDFFLVARTDARAPHGLEEGIRRANLYKEAGADATFVEAPANVDELKEVSAKTKGLRIANMIEGGKTPLHTPEEFKEMGFHLIAHSLTAVYATARALVNIMKILKEKGTTRDDLDQMATFSEFNELISLESWYEMESKFKNFTPKAT | soluble
MGSDKIHHHHHHMMLGNIAYMNPWWEGKEDYHVKLWKNQKIRWEPNWVREISLKPFSLNFILGPRQVGKTTGIKLLIQKILENNPPESVLYLNLEVLPTYRDLLEIIREFQELKKEERIKTGYIFLDEASSLEGWWRGIKPLIDAGLLENDVVTVTGSSSLRVRRDIEMFPGRRGEGKTLEIMPLSFPEYIKVMGLKKHRLESTKVLKLFDKYIQTGGFPGSINGFPMEDLLGAYIGEFVRFGKSLEIAKETLAALIRSAPSATSFRALAEMTSGYSYKVIQDYIEFFRDIYILGIAYLKEDNQVMYRREKKFFFRDPLLARLFSLWSGVEVREDALYEWIVQEHVFRRFGEVYYFRNSYEVDVIADNLKIEVKAGKAHRKYPRGVLVLEKDDIPFFLIEYYWTGLK | not soluble
MQFWRKQMSEIQHFSQQDIEILGEQTLYEGFFTLKRIQFKHKLFAGGQSGVVTRELLIKGAASAVIAYDPKEDSVILVEQVRIGAAYHPESHRSPWLLELIAGMVEKGEKPEDVALRESEEEAGIQVKNLTHCLSVWDSPGGIVERIHLFAGEVDSAQAKGIHGLAEENEDIKVHVVKREQAYQWMCEGKIDNGIAVIGLQWLQLNYAQLQQSWKRS | not soluble
MATYYSNDFRAGLKIMLDGEPYAVEASEFVKPGKGQAFARVKLRRLLTGTRVEKTFKSTDSAEGADVVDMNLTYLYNDGEFWHFMNNETFEQLSADAKAIGDNAKWLLDQAECIVTLWNGQPISVTPPNFVELEIVDTDPGLKGDTAGTGGKPATLSTGAVVKVPLFVQIGEVIKVDTRSGEYVSRVK | soluble
SLDIKEIVGDYNSFLDTIFELLIKGGFKENELKELPIDHICYRVSTNEFYNEKKEQLNQLGELLVETEIGGRMISTFKLNKPIQYKDKSIPLIELPAPKKNRINYDGLEHIEMVINEPFQSFVDNHPSPIDENLKFNWVLHALNKDINPDVECEFIDPRIKNEIRTISVKFHHQSLEEVVKYEIQLLKENEG | soluble
MAEEYSWDSYLNDRLLATNQVSGAGLASEEDGVVYACVAQGEESDPNFDKWSLFYKEDYDIEVEDENGTKTTKTINEGQTILVVFNEGYAPDGVWLGGTKYQFINIERDLEFEGYNFDVATCAKLKGGLHLVKVPGGNILVVLYDEEKEQDRGNSKIAALTFAKELAESSQLQHHHHHH | soluble
